Molecular target: BACINT_01039-CE1 (carbohydrate esterase family 1, acetyl-xylan esterase) (Bacteroides intestinalis DSM 17393) (UniProt B3C975)
Assay: crystal structure; seleno-methionine-labeled BACINT_01039-CE1, 20 mg/mL in 50 mM Tris, 150 mM NaCl pH 7.5; hanging drop; 10 mM ammonium sulfate, 80 mM sodium cacodylate pH 6.5, 21% PEG4000; two molecules in the asymmetric unit as a dimer

stoichiometry N: 2
Substance: BACINT_01039-CE1 (carbohydrate esterase family 1, acetyl-xylan esterase) (from UniProt B3C975 1-382) (enzyme)

— PMC7815789, “Degradation of complex arabinoxylans by human colonic Bacteroidetes” (Nature Communications, 2021)
